Assay results published in publication doi:10.1101/663153 (bioRxiv, 2019).

Molecular target: T1, CysLTR2-GFP10-1D4 L129Q (human, UniProt Q9NS75 1-346, L129Q)
T1 sequence (looked up): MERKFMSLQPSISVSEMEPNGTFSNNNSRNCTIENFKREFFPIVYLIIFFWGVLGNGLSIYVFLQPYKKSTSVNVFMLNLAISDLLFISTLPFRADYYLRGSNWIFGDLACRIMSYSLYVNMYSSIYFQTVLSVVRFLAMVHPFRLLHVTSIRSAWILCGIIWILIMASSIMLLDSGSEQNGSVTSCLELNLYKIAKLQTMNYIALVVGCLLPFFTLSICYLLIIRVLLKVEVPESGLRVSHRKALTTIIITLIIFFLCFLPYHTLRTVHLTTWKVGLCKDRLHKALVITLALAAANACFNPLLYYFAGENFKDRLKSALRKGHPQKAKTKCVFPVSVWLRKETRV
Experiment: FRET or BRET

B1: β-Arrestin1-RLuc3 (natural protein, UniProt P49407 1-418, looked up)
chain: MGDKGTRVFKKASPNGKLTVYLGKRDFVDHIDLVDPVDGVVLVDPEYLKERRVYVTLTCAFRYGREDLDVLGLTFRKDLFVANVQSFPPAPEDKKPLTRLQERLIKKLGEHAYPFTFEIPPNLPCSVTLQPGPEDTGKACGVDYEVKAFCAENLEEKIHKRNSVRLVIRKVQYAPERPGPQPTAETTRQFLMSDKPLHLEASLDKEIYYHGEPISVNVHVTNNTNKTVKKIKISVRQYADICLFNTAQYKCPVAMEEADDTVAPSSTFCKVYTLTPFLANNREKRGLALDGKLKHEDTNLASSTLLREGANREILGIIVSYKVKVKLVVSRGGLLGDLASSDVAVELPFTLMHPKPKEEPPHREVPENETPVDTNLIELDTNDDDIVFEDFARQRLKGMKDDKEEEEDGTGSPQLNNR
- ligand-independent net BRET^2 ratio: 0.00151 ± 0.0004
